Reference: patent publication US20240368230, “CELL-PENETRATING PEPTIDES COMPRISING MULTIPLE 5-MER ALPHA-HELIX FRAGMENTS AND USES […]” (ArtProBio Co., Ltd., published 2024)

Molecular target: Tat peptide (47-57) (Human immunodeficiency virus 1)
Assay: EMSA; non-cognate RNA; higher affinity than CPP11; 10 mM potassium phosphate pH 7.5, 100 mM NaCl
Conditions: protein: synthetic; tags: chemically synthesized peptide; stem-loop

GGACCUGGUAUGGGCGCAGCGCAAGCUGACGGUACAGGCCAGGUCC (ssRNA) [wild-type RRE IIB RNA]: binds.
